Reference: the RNAGym collection of RNA variant scans (doi:10.1093/molbev/msab373)

B1: Azoarcus group I ribozyme (parent)
chain: GUGCCUUGCGCCGGGAAACCACGCAAGGGAUGGUGUCAAAUUCGGCGAAACCUAAGCGCCCGCCCGGGCGUAUGGCAACGCCGAGCCAAGCUUCGGCGCCUGCGCCGAUGAAGGUGUAGAGACUAGACGGCACCCACCUAAGGCAAACGCUAUGGUGAAGGCAUAGUCCAGGGAGUGGCGAAAGUCACACAAACCGG

Variants of: B1
Assay: reverse-splicing fitness (ratio to wild type); higher = more active; in vitro selection; Mg2+ level not given
Outline: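 An in vitro group I ribozyme library with randomized positions was T7-transcribed and gel-purified. In triplicate, 10 pmol RNA in EPPS pH 7.5 was reacted with 50 pmoles of a 30-nt RNA substrate for 1 h at 37 °C across several added MgCl2 levels (1–48 mM), then stopped with EDTA. Products were reverse transcribed from a substrate-complementary primer, PCR-amplified and sequenced (HiSeq 4000). Fitness is a variant's read proportion after selection over that before, normalised to wild type.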

Q: Which reverse-splicing fitness does the source give for GUGCCUUGCGCCGGGAAACCACGCAAGGGAUGGUGUCAAAUUCGGCGAAACCUAAGCGCCCGCCCGGGCGUAUGGCAACGCCGAGCCAAGCUUCGGCGCCUGCGCCGAUGUAGGUGUAGGGACUAGACGGCACCCACCUAAGGCUAACGGUAUGGUGAAGGCAUAGUCCAGGGAGAGGCGAAAGUCACACAAACCGG [A111U A120G A145U C150G U176A] here?
A: Its reverse-splicing fitness is 0.00927.

Q: Which reverse-splicing fitness does the source give for GUGCCUUGCGCCGGGAAACCACGCAAGGGAUGGUGUCAAAUUCGGCGAAACCUAAGCGCCCGCCCGGGCGUAUGGCAACGCCGAGCCAAGCUUCGGCGCCUGCGCCGAUGUAGGUGUAGGGACUAGACGGCACCCACCUAAGGCUAACGGUAUGGUGAAGGCAUAGUCCAGGGAGGGGCGAAAGUCACACAAACCGG [A111U A120G A145U C150G U176G] here?
A: Its reverse-splicing fitness is 0.00309.

Q: For GUGCCUUGCGCCGGGAAACCACGCAAGGGAUGGUGUCAAAUUCGGCGAAACCUAAGCGCCCGCCCGGGCGUAUGGCAACGCCGAGCCAAGCUUCGGCGCCUGCGCCGAUGUAGGUGUAGGGACUAGACGGCACCCACCUAAGGCUAACGGUAUGGUGAAGGCAUAGUCCAGGGAGCGGCGAAAGUCACACAAACCGG [A111U A120G A145U C150G U176C], which reverse-splicing fitness is on record?
A: Its reverse-splicing fitness is 0.0142.

Q: With GUGCCUUGCGCCGGGAAACCACGCAAGGGAUGGUGUCAAAUUCGGCGAAACCUAAGCGCCCGCCCGGGCGUAUGGCAACGCCGAGCCAAGCUUCGGCGCCUGCGCCGAUGUAGGUGUAGGGACUAGACGGCACCCACCUAAGGCUAACGAUAUGGUGAAGGCAUAGUCUAGGGAGAGGCGAAAGUCACACAAACCGG [A111U A120G A145U C150A C169U U176A] as the variant, how does the reverse-splicing fitness read?
A: Its reverse-splicing fitness is 0.0271.

Q: For GUGCCUUGCGCCGGGAAACCACGCAAGGGAUGGUGUCAAAUUCGGCGAAACCUAAGCGCCCGCCCGGGCGUAUGGCAACGCCGAGCCAAGCUUCGGCGCCUGCGCCGAUGUAGGUGUAGGGACUAGACGGCACCCACCUAAGGCUAACGAUAUGGUGAAGGCAUAGUCUAGGGAGCGGCGAAAGUCACACAAACCGG [A111U A120G A145U C150A C169U U176C], which reverse-splicing fitness is on record?
A: The reverse-splicing fitness was 0.0173.

Q: With GUGCCUUGCGCCGGGAAACCACGCAAGGGAUGGUGUCAAAUUCGGCGAAACCUAAGCGCCCGCCCGGGCGUAUGGCAACGCCGAGCCAAGCUUCGGCGCCUGCGCCGAUGUAGGUGUAGGGACUAGACGGCACCCACCUAAGGCUAACGAUAUGGUGAAGGCAUAGUCUAGGGAGGGGCGAAAGUCACACAAACCGG [A111U A120G A145U C150A C169U U176G] as the variant, how does the reverse-splicing fitness read?
A: Its reverse-splicing fitness is 0.0052.

Q: For GUGCCUUGCGCCGGGAAACCACGCAAGGGAUGGUGUCAAAUUCGGCGAAACCUAAGCGCCCGCCCGGGCGUAUGGCAACGCCGAGCCAAGCUUCGGCGCCUGCGCCGAUGUAGGUGUAGGGACUAGACGGCACCCACCUAAGGCUAACGUUAUGGUGAAGGCAUAGUCAAGGGAGUGGCGAAAGUCACACAAACCGG [A111U A120G A145U C150U C169A], which reverse-splicing fitness is on record?
A: Its reverse-splicing fitness is 0.0657.

Q: Which reverse-splicing fitness does the source give for GUGCCUUGCGCCGGGAAACCACGCAAGGGAUGGUGUCAAAUUCGGCGAAACCUAAGCGCCCGCCCGGGCGUAUGGCAACGCCGAGCCAAGCUUCGGCGCCUGCGCCGAUGUAGGUGUAGGGACUAGACGGCACCCACCUAAGGCUAACGGUAUGGUGAAGGCAUAGUCAAGGGAGAGGCGAAAGUCACACAAACCGG [A111U A120G A145U C150G C169A U176A] here?
A: The reverse-splicing fitness was 0.0103.

Q: Which reverse-splicing fitness does the source give for GUGCCUUGCGCCGGGAAACCACGCAAGGGAUGGUGUCAAAUUCGGCGAAACCUAAGCGCCCGCCCGGGCGUAUGGCAACGCCGAGCCAAGCUUCGGCGCCUGCGCCGAUGUAGGUGUAGGGACUAGACGGCACCCACCUAAGGCUAACGGUAUGGUGAAGGCAUAGUCAAGGGAGCGGCGAAAGUCACACAAACCGG [A111U A120G A145U C150G C169A U176C] here?
A: Its reverse-splicing fitness is 0.0105.

Q: Which reverse-splicing fitness does the source give for GUGCCUUGCGCCGGGAAACCACGCAAGGGAUGGUGUCAAAUUCGGCGAAACCUAAGCGCCCGCCCGGGCGUAUGGCAACGCCGAGCCAAGCUUCGGCGCCUGCGCCGAUGUAGGUGUAGGGACUAGACGGCACCCACCUAAGGCUAACGGUAUGGUGAAGGCAUAGUCAAGGGAGGGGCGAAAGUCACACAAACCGG [A111U A120G A145U C150G C169A U176G] here?
A: The reverse-splicing fitness was 0.00496.

Q: With GUGCCUUGCGCCGGGAAACCACGCAAGGGAUGGUGUCAAAUUCGGCGAAACCUAAGCGCCCGCCCGGGCGUAUGGCAACGCCGAGCCAAGCUUCGGCGCCUGCGCCGAUGUAGGUGUAGGGACUAGACGGCACCCACCUAAGGCUAACGAUAUGGUGAAGGCAUAGUCGAGGGAGGGGCGAAAGUCACACAAACCGG [A111U A120G A145U C150A C169G U176G] as the variant, how does the reverse-splicing fitness read?
A: Its reverse-splicing fitness is 0.00465.

Q: With GUGCCUUGCGCCGGGAAACCACGCAAGGGAUGGUGUCAAAUUCGGCGAAACCUAAGCGCCCGCCCGGGCGUAUGGCAACGCCGAGCCAAGCUUCGGCGCCUGCGCCGAUGUAGGUGUAGGGACUAGACGGCACCCACCUAAGGCUAACGAUAUGGUGAAGGCAUAGUCGAGGGAGCGGCGAAAGUCACACAAACCGG [A111U A120G A145U C150A C169G U176C] as the variant, how does the reverse-splicing fitness read?
A: Its reverse-splicing fitness is 0.0194.

Q: For GUGCCUUGCGCCGGGAAACCACGCAAGGGAUGGUGUCAAAUUCGGCGAAACCUAAGCGCCCGCCCGGGCGUAUGGCAACGCCGAGCCAAGCUUCGGCGCCUGCGCCGAUGUAGGUGUAGGGACUAGACGGCACCCACCUAAGGCUAACGAUAUGGUGAAGGCAUAGUCGAGGGAGAGGCGAAAGUCACACAAACCGG [A111U A120G A145U C150A C169G U176A], which reverse-splicing fitness is on record?
A: The reverse-splicing fitness was 0.0165.

Q: Which reverse-splicing fitness does the source give for GUGCCUUGCGCCGGGAAACCACGCAAGGGAUGGUGUCAAAUUCGGCGAAACCUAAGCGCCCGCCCGGGCGUAUGGCAACGCCGAGCCAAGCUUCGGCGCCUGCGCCGAUGUAGGUGUAGGGACUAGACGGCACCCACCUAAGGCUAACGGUAUGGUGAAGGCAUAGUCCAGGGAGUGGCGAAAGUCACACAAACCGG [A111U A120G A145U C150G] here?
A: Its reverse-splicing fitness is 0.02.

Q: Which reverse-splicing fitness does the source give for GUGCCUUGCGCCGGGAAACCACGCAAGGGAUGGUGUCAAAUUCGGCGAAACCUAAGCGCCCGCCCGGGCGUAUGGCAACGCCGAGCCAAGCUUCGGCGCCUGCGCCGAUGUAGGUGUAGGGACUAGACGGCACCCACCUAAGGCUAACGUUAUGGUGAAGGCAUAGUCCAGGGAGUGGCGAAAGUCACACAAACCGG [A111U A120G A145U C150U] here?
A: Its reverse-splicing fitness is 0.104.
